target: T1, HLA-B*44:05 (human); test: UV peptide exchange, anti-b2m ELISA
T1 construct: also called peptide-receptive MHC class I molecule
Method in brief: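 Peptide-receptive HLA-B*44:05 monomers after UV-induced exchange were diluted 100-fold and captured on streptavidin-coated plates for 1 h at 37 °C. Bound complexes were detected with 2 µg/ml HRP-anti-β2m (1 h, 37 °C) and TMB, read at 450 nm. β2m signal reflects peptide-stabilized complex yield.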

EEAVRSVAF and AEYSVHKI fall in the same range of peptide exchange yield: 50 to 75% for the first, 50 to 75% for the second.

First: AEYSVHKITSTF
Second: EEYQDSFERY
The peptide exchange yield of the first is higher: greater than 75% for the first, 20 to 50% for the second.

First: SESMVESKF
Second: SESDLVNFI
The peptide exchange yield of the first is lower: 20 to 50% for the first, 50 to 75% for the second.

First: AEVTLNNTI
Second: TEGAVEVKY
The peptide exchange yield of the first is higher: 50 to 75% for the first, 20 to 50% for the second.

First: NEIDIHSIYF
Second: DENIQKFIW
The peptide exchange yield of the first is higher: greater than 75% for the first, 50 to 75% for the second.

First: AEAEEAMKRL
Second: AEVGDIIKV
The peptide exchange yield of the first is higher: 50 to 75% for the first, 20 to 50% for the second.

Compared with AEVGDIIKVHF, GEGTLRLSW is higher in peptide exchange yield: 50 to 75% for the first, greater than 75% for the second.

First: AELEGALQKA
Second: LETSCGSSTAY
The peptide exchange yield of the first is higher: 20 to 50% for the first, 10 to 20% for the second.

First: MEVDPIGHLYIF
Second: RLNEHPSNNW
The peptide exchange yield of the first is higher: greater than 75% for the first, 20 to 50% for the second.

QETLAESTW and TEFSNHINL fall in the same range of peptide exchange yield: 50 to 75% for the first, 50 to 75% for the second.

TEAQRLDCW and TEQSLYYRQW fall in the same range of peptide exchange yield: 50 to 75% for the first, 50 to 75% for the second.

First: GEKATMQNL
Second: TEGGTQKTF
The peptide exchange yield of the first is lower: 20 to 50% for the first, 50 to 75% for the second.

AETSYVKVLEY and SEIDEKVTDL fall in the same range of peptide exchange yield: 50 to 75% for the first, 50 to 75% for the second.

First: QTLKAMVQAW
Second: SEYPTKNYV
The peptide exchange yield of the first is higher: 50 to 75% for the first, 20 to 50% for the second.

First: GEARGDQVDW
Second: KEFYPVKEF
The peptide exchange yield of the first is higher: greater than 75% for the first, 20 to 50% for the second.

EESLLSSW and EESLLSSWDF fall in the same range of peptide exchange yield: 50 to 75% for the first, 50 to 75% for the second.

Compared with KEPSQSCIAQY, SEAGLTANQY is higher in peptide exchange yield: 10 to 20% for the first, 50 to 75% for the second.

Compared with SLAELIAKDW, AAFEDAQGHIW is higher in peptide exchange yield: 20 to 50% for the first, greater than 75% for the second.

First: MDELEEGESY
Second: EENIVAIGI
The peptide exchange yield of the first is lower: 10 to 20% for the first, 50 to 75% for the second.

First: ELVHMINW
Second: SEESAGPLL
The peptide exchange yield of the first is lower: 20 to 50% for the first, 50 to 75% for the second.

First: SECVKSLSF
Second: SEENTGKTY
The peptide exchange yield of the first is higher: greater than 75% for the first, 50 to 75% for the second.

TELADLDAAW and AELFLTKSF cannot be ordered by peptide exchange yield: greater than 75% for the first, greater than 75% for the second.

EEIFKTLNY and SVISDSPRSW fall in the same range of peptide exchange yield: 50 to 75% for the first, 50 to 75% for the second.

First: YQENPRAAW
Second: QETNKVETY
The peptide exchange yield of the first is lower: 20 to 50% for the first, 50 to 75% for the second.

Reference: patent publication US20200087363A1 (IMMATICS BIOTECHNOLOGIES, published 2020)
